Experimental data published in paper PMC5136619, “Crystal structure of bacterial haem importer complex in the inward-facing conformation” (Nature Communications, 2016).
Blank lines part the entries; values can stand above or below the substance they belong to.

Columns and labels:
[1] = molecular target: BhuV, nucleotide-binding ATPase subunit (NBD) of the haem importer BhuUV (Burkholderia cenocepacia); test: crystal structure; BhuUV-T complex, nucleotide-free and haem-free, in n-nonyl-beta-D-glucopyranoside; crystallised at 20 °C, 15% PEG 2000, 0.1 M HEPES pH 7.6; 3.2 Å
[2] = molecular target: BhuV, nucleotide-binding ATPase subunit (NBD) of the haem importer BhuUV (Burkholderia cenocepacia); test: crystal structure; BhuUV without BhuT, nucleotide-free; 30% PEG 400, 0.1 M NaCl, 0.1 M Li2SO4, 0.1 M Tris-HCl pH 8.5, 4 °C; 2.8 Å
[3] = molecular target: BhuU, transmembrane permease subunit (TMD) of the haem importer BhuUV (Burkholderia cenocepacia); test: crystal structure; BhuUV-T complex, nucleotide-free and haem-free, in n-nonyl-beta-D-glucopyranoside; crystallised at 20 °C, 15% PEG 2000, 0.1 M HEPES pH 7.6; 3.2 Å
[4] = molecular target: BhuU, transmembrane permease subunit (TMD) of the haem importer BhuUV (Burkholderia cenocepacia); test: crystal structure; BhuUV without BhuT, nucleotide-free; 30% PEG 400, 0.1 M NaCl, 0.1 M Li2SO4, 0.1 M Tris-HCl pH 8.5, 4 °C; 2.8 Å
[5] = molecular target: BhuUV haem importer complex (two BhuU and two BhuV) (Burkholderia cenocepacia)

stoichiometry N [1]: 2 | stoichiometry N [2]: 2
Substance: BhuV, nucleotide-binding ATPase subunit (NBD) of the haem importer BhuUV (natural protein)

Substance: BhuU, transmembrane permease subunit (TMD) of the haem importer BhuUV (natural protein)
stoichiometry N [3]: 2 | stoichiometry N [4]: 2

ATPase activity (Vmax) of BhuUV in detergent solution on addition of haem-free BhuT (Vmax 5.0 to 7.1 μmol min^−1 mg^−1) [5]: 1.4 fold | ATPase activity of BhuUV reconstituted in liposomes, with BhuT [5]: 1.4 fold
Substance: BhuT, periplasmic haem-binding protein (PBP), residues 40-311 (domain or fragment)
